According to the nanobody polyreactivity screen of Harvey et al. (2022):

Assay: yeast display, Sf9 membrane polyspecificity reagent, FACS + sequencing; frameworks hold sequencing errors
Summary of the method: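 Galactose-induced (36–48 hours) yeast carrying a synthetic nanobody display library were exposed to 10% biotinylated, detergent-solubilized Sf9 membrane reagent at 4 °C for 1 hour. FACS followed streptavidin microbead enrichment, using low and high (top ~1%) gates for expression (anti-HA) and reagent binding (streptavidin). Colony PCR, MiSeq 2 × 250 sequencing and CDR-length filtering followed. Labels for polyreactivity reflect the gate of origin.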

Sequence | polyreactivity (PSR sort gate)
QVQLVESGGGLVQAGGSRRLSCAASGGTFYYYAMGWYRQAPGKERELVAAIRGSGGSTYYADSVKGRFPISRDNAKNTVYLQMNSLKPVDTAVYYCATRGGYPKGYGYLAFNYWGQGTQVTVSS | high polyreactivity
QVQLVESGGGLVQAGGSLRLSCAASGRIFPSYTMGWYRQAPGKERELVAGITKSGSSTYYADSVKGRFTISRDNAKNTVYLQMNSLKPEDTAVYYCAAVYGNPSYRYGYWGQGTQVTVSS | high polyreactivity
QVQLVESGGGLVQAGGSLRLSCAASGITFKYYTMGWYRPAPGKERELVAAITSRAGRTYADSVKGRFTISRDNAKNTVYLQMNSLKPEDTAVYYCDKKWRGNTYLYDYWGQGTQVTVSS | high polyreactivity
QVQLVESGGGLFQAGGSLRLSCAASGRIFQHNTMGWYRQAPGKEREFVAAIRRSGGSTYYADSVKGRFTISRDNAKNTVYLQMNSLKPEDTAVFYCAARDYPTGTRRWGGGDSWGQGTQVTVSS | low polyreactivity
QVQLVESGGGLLQAGGSLRLSCAASVSIFDSYAMGWYREAPGKERELVAVISESGGTTYNADSVKGRFTISRDNAKNTVYLQMNSLKPEDTAVYYCAAVWYFQFGVWGYYWGQGTQVTVSS | low polyreactivity
QVQLVESRGGLVQAGGTLRLSCAASGSTFAVNAMGWYRQAPGKERELVATITGSGGSTYYADSVKGRFTISRDNAKNTVYLQLNSLKPEDTAVYYCATDLVFDKRYWYDYWGQGTQVTVSS | low polyreactivity
QVQLVESGGGLVQAGGSLRLSCAASGSNYSSNAMGWYRQATGKERELVAAISRSGVTTYYADSVKGRFTISRDNAKNTVYLQMNSLKPEDSAVYYCAAQPYSRLYGRYLGFQYKYDYWGQGTQLTVSS | low polyreactivity
QVQLVESGGGLVQAGGSLRLTCASSGRIYVVNAMGWYRQAPGKEMELVADIYRSGGSTYYADSVKGRFTISRDYAKNTVYLQMNSLKPEDTAVYYCAAEDWPSSPSAPGFDYDYWGQATQVTVSS | low polyreactivity
QVQLVESGGGLVQAGGSLRLSCAASGITLTRYAMGWYRQAPGKDRELVAAISTGGGSTYYADSVKGRFTISRDNAKNTVYLQMNSLKPEDTAVYYCAARIRFARGYPITRTYDYWGQGTQVTVSS | high polyreactivity
QVHLVESGGGLVQAGGSLRISCAASGFTFRYNAMGWNRQAPGKERELVAAISRGTITNYADSVKGRFTISRDNAKNTVYLQMNSLKPEDTAVYYCAARYPGHFRFYYWGQGTQVTVSS | high polyreactivity
QVQLVESGGGLVQAGGSLRLSCAASGRIFYYYAMGWYRQAPGKEREFVADISARGGSTYYADSVKGRFTISRDNAKKTVYLEMNSLKPEDTAVYYCAATTGLYTRYGYWGQGTQVTVSS | high polyreactivity
QVQLVESGGGLVQAGGSLRLSCAASGRIFRSYAMGWYRQAPGKERELVAAITSGGSTNYADSVKGRFTISRDNAKNTVYLQMNSLKPEDTAVYYCNADRWKSGYWRYDYWGQGTQVTVSS | low polyreactivity
QVQLVESGGGLVQAGGSLRLSCAASGFTFSRNTMGWYRQAPGKEREFVAGIRRSGSSTYYADSVKGRFTISRDNAKNTVYLQMNSLKPEDTAVYYCARVNGAKQGGEYDYWGQGTQVTVSS | high polyreactivity
QVQLVESGGGLVQAGGSLRLSCAASGITFYYYAKGWYRQAPGKEREFVAAINWSGTSTYYADSVKGRFTISRDNAKNTVYLQMNSLKPEDTAVYYCNAERGRSFWWAYDYWGQGTQVTVSS | low polyreactivity
QVQLVESGGGLVHAGGSLRLSCAASGSTFSWYVMGWYRQAPGKERELVAAISYRGGRTYYADSVKGRFTISRDNAKNTVYLHMNSLKTEDTAVYYCAARGVVDAGRTNRPYDYWGQGTQVTVSS | low polyreactivity
QDHLVESGGGLVQAGGSLRLSCAPSGSIFSYNSMGWYRQAPGKERELVAGISSDGSTNYADSVKGRFSISRDNAKNTVYLQMNSLKPEDTAVYYCAADEIVWQADLWGYGIYDYWGHGTQVTVSS | high polyreactivity

Sequence | polyreactivity (PSR sort gate)
QVQLVESGGGLVQAGGSLRLSCAASGITFYYYGMGWYRQAPGKERELVAAITTGGNTNYADSVKGRFTISRDNAKNTVYLQMNSLKPEDTAVYYCAAEYRIPYFFTYGYWGQGTQVTVSS | high polyreactivity
QVQLQESGGGLVQAGGSLRLSCAASGNIFLGDTMGWYRQAPGKEREFVAGIARGGNPYYADSVKGRFTISRNNAKNTVFLQKNSLKPEDTAVHYCAVQRSHASDYNYWGQGTQVTVSS | low polyreactivity
QVQLVESGGGLVQAGGSLRLSCAASGFTFQFYAMGWYRQAPGKESELVASIRSGVGTYYADSVKGRFTISRDNAKNTVYLQMYCVKPEDTAVYYCNAVYNRFSRSYDYWGQGTQVTVSS | high polyreactivity
QVQLVESGGGLVQAGGSLRLSCAASGRTIIYYGMGWYRQAPGKERELVAAISLRGSSTRYADSVKGRFTISRDNAKNTVYLQMNSLKPEDTAVYYCAARPRLSRYDYWGQGTQVTVSS | high polyreactivity
QVQLVESGGGLVQAGGSLRLSCAASGRIFLFYAMGWYRQGPGKERALVAAINWSGTRTYYADSVKGRFTISRDNAKNSVYLHMNSLKPEDTAVYDCNVDTSVYDFSEYDYWGQGTQVTVSS | high polyreactivity
QVQLVESGGGLVQAGGSLRLTCAASGLTFTTYALGWYRQAPGKERELVAAISRRGSRTYYADSVKGRFTISRDNAKNTVYLQMNSLKPEDTAVYYCNALTGSFKTYSFDYWGQGTQVTVSS | high polyreactivity
QVQLVESGGGLVQAGGSLRLSCAASGSIFVGYAMGWYRQAPGKERELVAAITFRGGSTYYADSVKGRFTISRDNAKNTVYLQMNSLKPEDTAVYYCNRVVRLRRPAQYNYWGQGTQVTVSS | high polyreactivity
QVQLVESGGGLVQAGGSLRLSCPASGLTFWLYALGWYRQAPGKERELVAAITRSGGSTSYADSVKGRFTISRDNAKNTVYLQMNSLKPEDTAVYYCNADSPGYTAVRLVEFDYWGQGTQVTVSS | low polyreactivity
QVQLVESGGGLVQAGGSLRLSCAASGRTFRGNAMGWYRQAPGKESELVAVITASGSTTYADSVKGRFTISRDNAKNTVYLQMNSLKPEDTAVYYCAKYVPWYTLWLGGTDRDYWGQGTQVTVSS | low polyreactivity
QVQLVESGGGLVQAGGSLRLSCDASGSTFPFYAMARYRQAPRKERELVAAIRNTGNTYYADSVKGSFTISRDNAKNTAYLQMNSLNPEDPAVYYCAKALRSASDYWGQGTQVTVSS | low polyreactivity
QVQLVESGGGLVQAGGSLRLSCAASGFTFLKYAMGWYRQAPGKERELVARITSGGRTYYADSVKGRFTISRDNAKNTVYLQMNSLKPEDTAVYYCNAVKSYASLYAGFYYWGQGTQVTVSS | high polyreactivity
QVQLVESGGGLVQAGGSLRLSCAASGSIINFNAMGWYRQQPGKERELDARINQGGGSTYYADSVKGRFTISRDNAKNTVYLQMNSLKPEDTAVYYCAAVRYVLRSPARYGYWGQGTQVTVSS | low polyreactivity
QVQLVESGGGLVQAGGSHRLSCAASGRTFWYNAMGWYRQAPGKERELVAAITSGDSTNYADSVKGRFTISRDNAKNTVYLQMNSLKPEVTAAYYCAAEGRPNWYYWAEGYYWGQGTQVTVSS | high polyreactivity
QVQLVESGGGLVQAGGSLRLSCAASGYTFIINAMGWYRQAPGKERELVASISGGGTYYADSVKGRFTISRDNAKNTVYLEMNSLKREDTAVYYCNATRRRKYYKYGGDYWGQGTQVTVSS | high polyreactivity
HVQLVESVGGLVQAGGSLRLRCAASGLTFRCNGMGWYRQEPGKETELVAAISSSGGSTYYADSVKGRFTISRDNAKNTVYLQLNSLKPEDTGVYFCARLVFYSQGVREMDYWGQGTQVTGSS | high polyreactivity
